Assay results published in patent US8008452B2, “Phosphorylated Ndr kinase” (Novartis Forschungesstiftung, Zweigniederlassung Friedrich …, priority 2002, dated 2011).

Key:
[1] = test system: GST-NDR1; assay: GST-NDR1 kinase assay (peptide kinase assay); type: biochemical, human; design: Specific activity of GST-NDR1 variants, CTRL / Specific activity of GST-NDR1 variants, −S100B / Specific activity of GST-NDR1 variants, +S100B: unit not given here
Protocol: 1 microgram of purified recombinant GST-NDR1 wild type and mutants (without further treatment or autophosphorylated for 2 h in the presence or absence of 1 mM CaCl2 and […] (Sigma)) were assayed in 20 microliter of reaction mixture containing 20 mM Tris-HCl pH 7.5, 10 mM MgCl2, 1 mM DTT, 100 microM [gamma-^32P]ATP (˜0.5 microCi/microliter), and 1 mM NDR1 substrate peptide ([…]; SEQ ID NO:22). After 30 mins incubation at 30° C., reactions were stopped with 50 mM EDTA, and 10 microliters of reaction mixture were spotted onto 2 cm^2 squares of P81 phosphocellulose paper (Whatman). These were subsequently washed for 4×5 min and 3×20 min in 1% phosphoric acid and once in acetone before counting in a liquid scintillation counter. One unit of NDR1 activity was defined as the amount which catalyses the phosphorylation of 1 nmol peptide substrate in 1 min.
Specific activity of GST-NDR1 mutants was also measured by a peptide kinase assay as described above. For this purpose, 1 microgram of purified GST-NDR1 wild type and alanine mutants were left without further treatment or autophosphorylated for 2 h in the presence or absence of 1 mM CaCl2 and […].

[2] = test system: HA-NDR1; assay: HA-NDR1 kinase assay on 12CA5 immunoprecipitates from transfected, treated COS-1 cells; type: cell-based, human; design: kinase activity of HA-NDR1 variants, −OA: unit not given here; settings: COS-1 cells
Protocol: In some experiments, the cells were treated for 60 min with 1 microM okadaic acid in 0.1% N,N-dimethylformamide (DMF) (Alexis Corp.), 50 microM BAPTA-AM (1,2-bis (o-aminophenoxy) ethane-N,N,N′,N′-tetraacetic acid tetra (acetoxy-methyl)ester) in 0.1% diimethylsulfoxide (DMSO; Sigma), or 20 microM thapsigargin in 0.1% DMSO (Alomone) 24 hours after transfection.
Transfected and treated COS-1 cells were washed once with ice-cold PBS, and harvested by rubber policeman in 1 ml ice-cold PBS containing 1 mM Na3VO4 and 20 mM beta-glycerophosphate before lysis in 500 microliters of IP buffer (20 mM Tris-HCl pH 8.0, 150 mM NaCl, 1% Nonidet P-40, 10% glycerol, 1 mM Na3VO4, 20 mM beta-glycerolphosphate, 1 microM microcystin-LR, 50 mM NaF, 0.5 mM PMSF, 4 microM leupeptin, 1 mM benzamidine, and 1 tablet/10 ml IP of Complete protease inhibitors (Roche)). Lysates were centrifuged at 20 000 g for 20 min and triplicate aliquots (200 microg) of supernatant were precleared with protein A-Sepharose (Amersham Pharmacia Biotech) for 60 min and mixed subsequently for 3 h at 4° C. with 12CA5 antibody prebound to protein A-Sepharose (˜1 microg antibody bound to 2 microl beads). The beads were then washed twice with IP buffer, once for 10 min with IP buffer containing 1 M NaCl, once again for 10 min with IP buffer, and finally twice with 20 mM Tris-HCl pH 7.5 containing 4 microM leupeptin and 1 mM benzamidine. Thereafter, beads were resuspended in 30 microliters buffer containing 20 mM Tris-HCl pH 7.5, 10 mM MgCl2, 1 mM DTT, 100 microM [gamma-^32P]ATP (˜0.1 microCi/microliter), 1 microM cAMP-dependent protein kinase inhibitor peptide PKI (Bachem), 4 microM leupeptin, 1 mM benzamidine, 1 microM microcystin-LR, and 1 mM NDR1 substrate peptide ([…]). After 60 min incubation at 30° C., 15 microliters of supernatant were removed, and phosphate incorporation into the substrate peptide determined as described for GST-NDR1 above.
COS-1 cells expressing either wild type HA-NDR1 or the indicated mutants were treated for 1 h with 1 microM okadaic acid or with solvent alone. HA-tagged NDR kinase variants were then immunoprecipitated (out of 100 microgram of detergent extracts) with 12CA5 monoclonal antibody and assayed for kinase activity by a peptide kinase assay as described above.
Mock-transfected or HA-NDR1-expressing COS-1 cells were treated for 1 h with […], 50 microM BAPTA-AM, and […] or with solvent (0.1% DMF or 0.1% DMSO) alone. 12CA5 immunoprecipitates (out of 100 microgram protein extract) were then assayed using the peptide kinase assay for NDR1 kinase activity.
To test whether hMOB1 plays a role in NDR activation, myc-hMOB1 or the empty vector was cotransfected with HA-NDR1 in COS1 cells and treated with OA. 12CA5 immunoprecipitates were then assayed using the peptide kinase assay for HA-NDR kinase activity. […] GST-MOB and GST respectively was added to immunoprecipitated HA-NDR and kinase reaction were performed. The reactions were resolved on a 10% SDS PAGE and the radioactivity visualised by using a phosphoimager.

[3] = test system: GST-NDR1; assay: GST-NDR1 in vitro autophosphorylation, incorporated 32P by Cerenkov counting; type: biochemical, human; settings: GST-NDR1 variant
Protocol: (§1) BL21-DE3-pRep4 E. coli strain was transformed with the pGEX-2T_NDR1 wild type or mutant plasmids. BL21-DE3 is a protease-deficient E. coli strain and pRep4 is a Laclq repressor-bearing plasmid both available commercially. Optionally, if desired, an E. coli strain comprising GroESL can be used, which expresses a chaperone protein that stabilizes the kinase. Mid-logarithmic phase cells were induced with 0.5 mM isopropyl beta-D-thiogalactopyranoside (IPTG) for 4 hours at 30° C. Bacteria were lysed using a French press in the presence of 1 mg/ml lysosyme, and the fusion proteins were purified on glutathione-agarose (Amersham Pharmacia Biotech) as described by the manufacturers. Recombinant proteins were assayed for kinase activity as described below and autophosphorylation was determined after SDS-PAGE separation either by Cerenkov counting or by exposure to a PhosphorImager screen followed by analysis with ImageQuant software (Molecular Dynamics).
(§2) In brief, 1 microgram of purified GST-NDR1 (in solution ˜0.5 microM) wild type, kinase dead (K118A), and alanine mutants of phosphorylation residues Thr74, Ser281, and Thr444 were autophosphorylated for 2 hours in vitro without further additions or in the presence of 1 mM CaCl2 and 10 microM bovine S100B. Proteins were visualized on SDS gels using Coomassie Blue R-350 stained SDS-PAGE gel, and [gamma-^32P]ATP-labelled proteins were visualized by autoradiography of the gels developed on a Phosphorimager screen. The amount of incorporated ^32P was quantified by Cerenkov counting.

[4] = biological target: T1, GST-NDR1 (Homo sapiens, UniProt Q15208); assay: as above; type: biochemical; settings: in vitro
T1 construct: made in house; host or cells: E. coli BL21-DE3-pRep4
Protocol: as §1, §2

T1 sequence (Q15208 2-465): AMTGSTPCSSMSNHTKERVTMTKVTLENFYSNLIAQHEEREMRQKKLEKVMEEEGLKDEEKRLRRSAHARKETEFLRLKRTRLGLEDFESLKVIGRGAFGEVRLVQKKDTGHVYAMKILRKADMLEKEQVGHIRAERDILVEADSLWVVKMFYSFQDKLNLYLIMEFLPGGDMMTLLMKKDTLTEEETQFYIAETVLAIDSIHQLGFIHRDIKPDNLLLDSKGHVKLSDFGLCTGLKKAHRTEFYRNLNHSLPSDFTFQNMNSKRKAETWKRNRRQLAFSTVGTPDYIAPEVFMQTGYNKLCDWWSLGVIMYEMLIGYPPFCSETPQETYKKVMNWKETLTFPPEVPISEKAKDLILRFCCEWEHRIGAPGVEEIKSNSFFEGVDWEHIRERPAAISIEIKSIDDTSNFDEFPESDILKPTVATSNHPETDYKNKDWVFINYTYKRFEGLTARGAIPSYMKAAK

## WT: human NDR1 wild type; GST fusion in the 2nd table, the 3rd table, HA-tagged in the 4th table
[1]; autophosphorylated 2 h in the absence of CaCl2 and S100B
  Specific activity of GST-NDR1 variants, −S100B: 4.106
[1]; autophosphorylated 2 h in the presence of 1 mM CaCl2 and 10 mM bovine S100B
  Specific activity of GST-NDR1 variants, +S100B: 21.348
[1]; left without further treatment
  Specific activity of GST-NDR1 variants, CTRL: 1
[2]; 1 microM okadaic acid 1 h
  kinase activity of HA-NDR1 variants, +OA: 10.8852
[2]; solvent alone 1 h
  kinase activity of HA-NDR1 variants, −OA: 0.3532
[3]; 1 microgram, autophosphorylated 2 hours without further additions, pmol ATP/pmol GST-NDR1
  amount of incorporated 32P (autophosphorylation), −S100B: 0.1688
[3]; 2 hours in the presence of 1 mM CaCl2 and 10 microM bovine S100B, in pmol ATP/pmol GST-NDR1
  amount of incorporated 32P (autophosphorylation), +S100B: 0.3512
[4]
  autophosphorylation of wild-type GST-NDR1 in vitro: up to 0.4 pmol ATP/pmol GST-NDR1
